T1: Antp-PCP
T1 chain: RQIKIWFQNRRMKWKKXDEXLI

T2: R9-PCP
T2 chain: RRRRRRRRRXDEXLI

T3: cFΦR4-PCP (not fully specified)
T3 chain: FXRRRRQXDEXLI

T4: peptide 6 (Table 10)
T4 chain: RRRRXFDXXD

T5: peptide 7 (Table 10)
T5 chain: RRRRRRRRRDXXDX

B1: VHR (protein)
chain: MSGSFELSVQDLNDLLSDGSGCYSLPSQPCNEVTPRIYVGNASVAQDIPKLQKLGITHVLNAAEGRSFMHVNTNANFYKDSGITYLGIKANDTQEFNLSAYFERAADFIDQALAQKNGRVLVHCREGYSRSPTLVIAYLMMRQKMDVKSALSIVRQNREIGPNDGFLAQLCQLNDRLAKEGKLKP
B2: Caspase-3, Human, recombinant protein (protein)
chain: SGISLDNSYKMDYPEMGLCIIINNKNFHKSTGMTSRSGTDVDAANLRETFRNLKYEVRNKNDLTREEIVELMRDVSKEDHSKRSSFVCVLLSHGEEGIIFGTNGPVDLKKITNFFRGDRCRSLTGKPKLFIIQACRGTELDCGIETDSGVDDDMACHKIPVEADFLYAYSTAPGYYSWRNSKDGSWFIQSLCAMLKQYADKLEFMHILTRVNRKVATEFESFSFDATFHAKKQIPCIVSMLTKELYFYH
B3: SHP2 (protein)
chain: AETTDKVKQGFWEEFETLQQQECKLLYSRKEGQRQENKNKNRYKNILPFDHTRVVLHDGDPNEPVSDYINANIIMPEFETKCNNSKPKKSYIATQGCLQNTVNDFWRMVFQENSRVIVMTTKEVERGKSKCVKYWPDEYALKEYGVMRVRNVKESAAHDYTLRELKLSKVGQGNTERTVWQYHFRTWPDHGVPSDPGGVLDFLEEVHHKQESIMDAGPVVVHCSAGIGRTGTFIVIDILIDIIREKGVDCDIDVPKTIQMVRSQRSGMVQTEAQYRFIYMAVQHYIETLQRRI
B4: TCPTP (protein)
chain: MPTTIEREFEELDTQRRWQPLYLEIRNESHDYPHRVAKFPENRNRNRYRDVSPYDHSRVKLQNAENDYINASLVDIEEAQRSYILTQGPLPNTCCHFWLMVWQQKTKAVVMLNRIVEKESVKCAQYWPTDDQEMLFKETGFSVKLLSEDVKSYYTVHLLQLENINSGETRTISHFHYTTWPDFGVPESPASFLNFLFKVRESGSLNPDHGPAVIHCSAGIGRSGTFSLVDTCLVLMEKGDDINIKQVLLNMRKYRMGLIQTPDQLRFSYMAIIEGAKCIKGDSSIQKRWKELSKEDLSPAFDHSPNKIMTEKYN
B5: PTP1B (protein)
chain: MEMEKEFEQIDKSGSWAAIYQDIRHEASDFPCRVAKLPKNKNRNRYRDVSPFDHSRIKLHQEDNDYINASLIKMEEAQRSYILTQGPLPNTCGHFWEMVWEQKSRGVVMLNRVMEKGSLKCAQYWPQKEEKEMIFEDTNLKLTLISEDIKSYYTVRQLELENLTTQETREILHFHYTTWPDFGVPESPASFLNFLFKVRESGSLSPEHGPVVVHCSAGIGRSGTFCLADTCLLLMDKRKDPSSVDIKKVLLEMRKFRMGLIQTADQLRFSYLAVIEGAKFIMGDSSVQDQWKELSHEDLEPPPEHIPPPPRPPKRILEPHN
B6: PTPRC (protein)
chain: YKIYDLHKKRSCNLDEQQELVERDDEKQLMNVEPIHADILLETYKRKIADEGRLFLAEFQSIPRVFSKFPIKEARKPFNQNKNRYVDILPYDYNRVELSEINGDAGSNYINASYIDGFKEPRKYIAAQGPRDETVDDFWRMIWEQKATVIVMVTRCEEGNRNKCAEYWPSMEEGTRAFGDVVVKINQHKRCPDYIIQKLNIVNKKEKATGREVTHIQFTSWPDHGVPEDPHLLLKLRRRVNAFSNFFSGPIVVHCSAGVGRTGTYIGIDAMLEGLEAENKVDVYGYVVKLRRQRCLMVQVEAQYILIHQALVEYNQFGETEVNLSELHPYLHNMKKRDPPSEPSPLEAEFQRLPSYRSWRTQHIGNQEENKSKNRNSNVIPYDYNRVPLKHELEMSKESEHDSDESSDDDSDSEEPSKYINASFIMSYWKPEVMIAAQGPLKETIGDFWQMIFQRKVKVIVMLTELKHGDQEICAQYWGEGKQTYGDIEVDLKDTDKSSTYTLRVFELRHSKRKDSRTVYQYQYTNWSVEQLPAEPKELISMIQVVKQKLPQKNSSEGNKHHKSTPLLIHCRDGSQQTGIFCALLNLLESAETEEVVDIFQVVKALRKARPGMVSTFEQYQFLYDVIASTYPAQNGQVKKNNHQEDKIEFDNEVDKVKQDANCVNPLGAPEKLPEAKEQAEGSEPTSGTEGPEHSVNGPASPALNQGS

What was measured:
[1] = molecular target: T1, Antp-PCP
[2] = molecular target: T2, R9-PCP
[3] = molecular target: T3, cFΦR4-PCP
[4] = molecular target: T4, peptide 6 (Table 10)
[5] = molecular target: T5, peptide 7 (Table 10)

Protein | kcat/KM (dephosphorylation of pCAP peptide) [1] | kcat/KM (dephosphorylation of pCAP peptide) [2] | kcat/KM (dephosphorylation of pCAP peptide) [3] | decrease of substrate activity relative to peptide 3 [4] | decrease of substrate activity relative to peptide 3 [5]
B1 | 2030 M⁻¹ s⁻¹ | 6240 M⁻¹ s⁻¹ | 2460 M⁻¹ s⁻¹ |  | 
B2 |  |  |  | decreased its activity by 53% and 72%, respectively, relative to peptide 3 | decreased its activity by 53% and 72%, respectively, relative to peptide 3
B3 | 2210 M⁻¹ s⁻¹ | 248 M⁻¹ s⁻¹ | 7400 M⁻¹ s⁻¹ |  | 
B4 | 970 M⁻¹ s⁻¹ | 457 M⁻¹ s⁻¹ | 2780 M⁻¹ s⁻¹ |  | 
B5 | 17400 M⁻¹ s⁻¹ | 14700 M⁻¹ s⁻¹ | 37100 M⁻¹ s⁻¹ |  | 
B6 | 22300 M⁻¹ s⁻¹ | 2940 M⁻¹ s⁻¹ | 35100 M⁻¹ s⁻¹ |  | 

From patent publication US20200385427
